Results on 1 molecule are retold here after patent EP4626929A2 (dated 2025).

The target of this assay is BTLA on human primary B cells (human, UniProt Q7Z6A9 31-289). Nature of the assay: cell-based or functional assay.

B1: BTLA agonist antibody M10825 (antibody, human IgG2, kappa)
heavy: QITLKESGPTLVKPTQTLTLTCTFSGFSLSTSGVGVGWIRQPPGKALEWLAQEFWTGDKRYSPSLKSRLTITKDTSKNQVVLTMTNMDPVDTATYYCTHKLGMNYFDYWGQGTLVTVSSASTKGPSVFPLAPCSRSTSESTAALGCLVKDYFPEPVTVSWNSGALTSGVHTFPAVLQSSGLYSLSSVVTVPSSNFGTQTYTCNVDHKPSNTKVDKTVERKCCVECPPCPAPPVAGPSVFLFPPKPKDTLMISRTPEVTCVVVDVSHEDPEVQFNWYVDGVEVHNAKTKPREEQFNSTFRVVSVLTVVHQDWLNGKEYKCKVSNKGLPAPIEKTISKTKGQPREPQVYTLPPSREEMTKNQVSLTCLVKGFYPSDIAVEWESNGQPENNYKTTPPMLDSDGSFFLYSKLTVDKSRWQQGNVFSCSVMHEALHNHYTQKSLSLSPG
light: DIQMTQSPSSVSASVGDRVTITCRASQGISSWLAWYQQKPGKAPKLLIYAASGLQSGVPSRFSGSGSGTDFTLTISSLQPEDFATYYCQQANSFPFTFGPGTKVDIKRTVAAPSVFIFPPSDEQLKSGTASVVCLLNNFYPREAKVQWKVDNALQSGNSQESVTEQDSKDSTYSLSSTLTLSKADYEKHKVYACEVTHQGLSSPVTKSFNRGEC
As to B1, the “IC50 of inhibition of human primary B cell proliferation” value was found to be 10.5 nM.
